Biological target: T1, FLAG-tagged PXR K109A (human, UniProt O75469 1-434, K109A)
T1 sequence (looked up): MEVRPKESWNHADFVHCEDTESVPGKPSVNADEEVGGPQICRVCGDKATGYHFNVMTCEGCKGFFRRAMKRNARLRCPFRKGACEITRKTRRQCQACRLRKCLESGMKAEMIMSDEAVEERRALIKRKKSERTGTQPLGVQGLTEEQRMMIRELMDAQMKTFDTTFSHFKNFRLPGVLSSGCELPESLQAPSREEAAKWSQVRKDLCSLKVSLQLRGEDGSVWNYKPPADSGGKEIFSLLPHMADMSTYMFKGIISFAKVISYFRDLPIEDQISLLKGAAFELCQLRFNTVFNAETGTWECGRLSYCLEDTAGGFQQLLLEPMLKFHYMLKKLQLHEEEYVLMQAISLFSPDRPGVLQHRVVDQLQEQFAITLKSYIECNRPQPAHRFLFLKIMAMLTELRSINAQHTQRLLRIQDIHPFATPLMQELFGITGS
Assay: co-IP

B1: His-tagged BRD9 (natural protein, UniProt Q9H8M2 1-597, looked up)
chain: MGKKHKKHKAEWRSSYEDYADKPLEKPLKLVLKVGGSEVTELSGSGHDSSYYDDRSDHERERHKEKKKKKKKKSEKEKHLDDEERRKRKEEKKRKREREHCDTEGEADDFDPGKKVEVEPPPDRPVRACRTQPAENESTPIQQLLEHFLRQLQRKDPHGFFAFPVTDAIAPGYSMIIKHPMDFGTMKDKIVANEYKSVTEFKADFKLMCDNAMTYNRPDTVYYKLAKKILHAGFKMMSKQAALLGNEDTAVEEPVPEVVPVQVETAKKSKKPSREVISCMFEPEGNACSLTDSTAEEHVLALVEHAADEARDRINRFLPGGKMGYLKRNGDGSLLYSVVNTAEPDADEEETHPVDLSSLSSKLLPGFTTLGFKDERRNKVTFLSSATTALSMQNNSVFGDLKSDEMELLYSAYGDETGVQCALSLQEFVKDAGSYSKKVVDDLLDQITGGDHSRTLFQLKQRRNVPMKPPDEAKVGDTLGDSSSSVLEFMSMKSYPDVSVDISMLSSLGKVKKELDPDDSHLNLDETTKLLQDLHEAQAERGGSRPSSNLSSLSNASERDQHHLGSPSRLSVGEQPDVTHDPYEFLQSPEPAASAKT
interaction relative to that between FLAG-PXR and BRD9-His: 0.3 fold

Reference: article doi:10.1101/2023.02.03.527063 (bioRxiv, 2023)
